Data on one molecule can be found in PMC1868780, “Short RNA Guides Cleavage by Eukaryotic RNase III”.

This series has as its target T1, Rnt1p (yeast RNase III) (Saccharomyces cerevisiae, UniProt Q02555 1-471).
T1 sequence: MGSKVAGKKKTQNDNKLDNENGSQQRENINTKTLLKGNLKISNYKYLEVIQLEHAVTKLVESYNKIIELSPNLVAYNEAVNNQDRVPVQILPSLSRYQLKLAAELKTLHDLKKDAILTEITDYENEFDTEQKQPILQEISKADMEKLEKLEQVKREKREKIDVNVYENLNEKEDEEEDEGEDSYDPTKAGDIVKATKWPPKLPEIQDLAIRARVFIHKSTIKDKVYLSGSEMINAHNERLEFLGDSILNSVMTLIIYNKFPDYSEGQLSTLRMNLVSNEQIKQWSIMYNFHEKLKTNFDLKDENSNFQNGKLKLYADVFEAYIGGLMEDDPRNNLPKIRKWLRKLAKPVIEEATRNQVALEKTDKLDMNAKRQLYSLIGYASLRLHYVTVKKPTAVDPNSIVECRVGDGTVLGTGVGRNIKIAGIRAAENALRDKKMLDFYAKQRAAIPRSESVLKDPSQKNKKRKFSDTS
The series is described as follows: EMSA; apparent K'd; Protein EMSA as in cited ref 12 (buffer not given): 3 fmol 5'-labeled RNA, Rnt1p 0.25-6 uM; trans reactions with 2 pmol cold target. The conditions noted are these: protein: recombinant; chain copies: 2; label: 5'-32P; hairpin. For orientation: Mobility shift assays separate free from complexed probe on a gel.

B1: 3'-Branch (structured_RNA)
RNA: GCUUGAAGAGGAUGAGUCCAUCCCCAAAACAUUAGCUUGAAAAAGCUAAUGUUUUGGAAUCUUCAAGAUUAUGG
Turning to B1, the Kd was found to be 750 nM.
